Here are results for 1 substance from US20140087395A1.

This assay has as its target pig asialo-thyroglobulin (pig) (UniProt F1RRV3). Description: cell-based or functional assay.
Sequence of UniProt F1RRV3 (F1RRV3 20-2692 limits assumed): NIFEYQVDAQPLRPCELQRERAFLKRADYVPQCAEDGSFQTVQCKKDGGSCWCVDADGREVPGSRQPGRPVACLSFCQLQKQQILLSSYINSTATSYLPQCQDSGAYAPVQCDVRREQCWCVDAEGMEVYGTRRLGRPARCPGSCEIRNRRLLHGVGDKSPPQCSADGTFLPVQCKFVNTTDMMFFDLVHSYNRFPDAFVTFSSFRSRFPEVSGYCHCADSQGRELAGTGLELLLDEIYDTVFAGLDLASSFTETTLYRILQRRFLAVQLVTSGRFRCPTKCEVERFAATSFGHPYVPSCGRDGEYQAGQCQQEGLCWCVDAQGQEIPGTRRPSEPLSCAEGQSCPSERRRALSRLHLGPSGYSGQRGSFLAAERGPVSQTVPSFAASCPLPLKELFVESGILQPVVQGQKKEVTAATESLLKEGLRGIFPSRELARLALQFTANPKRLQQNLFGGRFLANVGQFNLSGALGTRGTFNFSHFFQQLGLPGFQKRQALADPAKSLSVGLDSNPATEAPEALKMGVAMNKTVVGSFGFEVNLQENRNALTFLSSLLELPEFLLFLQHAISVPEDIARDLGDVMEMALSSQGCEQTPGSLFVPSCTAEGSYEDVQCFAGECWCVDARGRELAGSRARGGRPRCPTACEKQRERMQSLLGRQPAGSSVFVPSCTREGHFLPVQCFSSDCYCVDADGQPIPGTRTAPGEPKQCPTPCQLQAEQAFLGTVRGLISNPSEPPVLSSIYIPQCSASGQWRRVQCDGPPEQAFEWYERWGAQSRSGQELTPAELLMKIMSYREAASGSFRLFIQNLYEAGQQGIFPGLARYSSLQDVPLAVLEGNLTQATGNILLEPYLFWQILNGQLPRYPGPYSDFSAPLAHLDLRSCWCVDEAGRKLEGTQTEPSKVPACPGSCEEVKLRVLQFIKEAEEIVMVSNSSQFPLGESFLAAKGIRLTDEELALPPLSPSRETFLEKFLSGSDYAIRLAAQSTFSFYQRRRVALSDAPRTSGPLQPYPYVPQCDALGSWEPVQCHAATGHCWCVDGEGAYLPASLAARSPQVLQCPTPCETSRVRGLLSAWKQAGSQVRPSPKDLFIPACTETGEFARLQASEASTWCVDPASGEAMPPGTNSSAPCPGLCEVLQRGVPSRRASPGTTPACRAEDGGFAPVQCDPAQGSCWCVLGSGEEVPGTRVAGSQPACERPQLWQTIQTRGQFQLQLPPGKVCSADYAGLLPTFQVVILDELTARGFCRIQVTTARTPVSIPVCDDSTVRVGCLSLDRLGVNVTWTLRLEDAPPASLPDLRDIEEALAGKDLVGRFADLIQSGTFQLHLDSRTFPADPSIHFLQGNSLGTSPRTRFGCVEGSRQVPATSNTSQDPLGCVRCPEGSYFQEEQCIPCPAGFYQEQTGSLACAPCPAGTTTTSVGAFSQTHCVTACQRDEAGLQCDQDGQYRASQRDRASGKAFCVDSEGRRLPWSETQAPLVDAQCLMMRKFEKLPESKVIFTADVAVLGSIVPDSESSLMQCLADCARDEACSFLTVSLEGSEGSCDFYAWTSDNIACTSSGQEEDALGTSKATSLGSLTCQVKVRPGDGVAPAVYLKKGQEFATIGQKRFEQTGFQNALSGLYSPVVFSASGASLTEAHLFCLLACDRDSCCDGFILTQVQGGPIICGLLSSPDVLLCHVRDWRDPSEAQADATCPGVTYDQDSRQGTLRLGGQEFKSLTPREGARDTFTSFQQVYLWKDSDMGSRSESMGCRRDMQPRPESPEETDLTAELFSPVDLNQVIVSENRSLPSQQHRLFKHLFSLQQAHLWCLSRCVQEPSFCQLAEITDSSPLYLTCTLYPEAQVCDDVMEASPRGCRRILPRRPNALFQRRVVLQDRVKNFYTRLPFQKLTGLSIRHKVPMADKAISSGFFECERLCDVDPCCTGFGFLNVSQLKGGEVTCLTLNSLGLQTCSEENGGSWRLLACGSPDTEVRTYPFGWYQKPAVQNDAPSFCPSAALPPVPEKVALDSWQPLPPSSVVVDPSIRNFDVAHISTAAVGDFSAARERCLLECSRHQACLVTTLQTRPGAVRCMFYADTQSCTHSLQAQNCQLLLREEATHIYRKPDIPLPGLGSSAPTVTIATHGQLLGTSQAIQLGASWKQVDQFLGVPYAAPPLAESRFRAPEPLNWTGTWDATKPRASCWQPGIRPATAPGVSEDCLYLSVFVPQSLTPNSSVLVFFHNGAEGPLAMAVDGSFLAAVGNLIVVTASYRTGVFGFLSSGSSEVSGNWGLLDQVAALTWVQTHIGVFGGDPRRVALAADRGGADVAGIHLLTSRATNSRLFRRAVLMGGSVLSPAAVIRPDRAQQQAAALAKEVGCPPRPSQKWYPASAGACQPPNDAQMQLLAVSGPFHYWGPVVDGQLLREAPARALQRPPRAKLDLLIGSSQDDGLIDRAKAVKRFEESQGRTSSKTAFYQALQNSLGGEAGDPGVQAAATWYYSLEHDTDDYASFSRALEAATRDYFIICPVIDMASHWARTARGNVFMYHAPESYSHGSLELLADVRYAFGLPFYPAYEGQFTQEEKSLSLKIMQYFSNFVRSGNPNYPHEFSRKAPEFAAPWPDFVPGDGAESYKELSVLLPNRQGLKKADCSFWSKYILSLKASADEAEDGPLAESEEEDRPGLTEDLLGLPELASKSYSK

In turn, “CBA (Codium barbatum agglutinin), purified from Codium barbatum” had an inhibition of hemagglutination activity (trypsin-treated rabbit red blood cells) of 31 µg/mL.
